Data on two molecules can be found in US20170072041A1 (OHIO STATE INNOVATION FOUNDATION, published 2017).

Assay [1] has as its target mouse DNase X on wild-type bone marrow-derived macrophages (BMDMs) (mouse) (UniProt Q9D7J6). In words: cell-based or functional assay.
In assay [2] the target is T1, native human DNase X (deoxyribonuclease 1-like 1) from THP-1 cell lysate (human, UniProt P49184 19-302, limits assumed).
T1 construct: GPI-anchored cell surface protein; also called DNase 1L1; DN1L1
T1 sequence (looked up): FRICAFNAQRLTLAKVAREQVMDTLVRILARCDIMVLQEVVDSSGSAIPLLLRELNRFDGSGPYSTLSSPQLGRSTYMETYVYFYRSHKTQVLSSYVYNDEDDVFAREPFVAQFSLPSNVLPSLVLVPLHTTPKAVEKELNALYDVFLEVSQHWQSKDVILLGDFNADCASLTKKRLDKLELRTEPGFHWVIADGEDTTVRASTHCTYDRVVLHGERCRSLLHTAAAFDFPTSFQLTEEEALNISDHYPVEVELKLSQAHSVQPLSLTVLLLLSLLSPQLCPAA
In words: far-Western blot, THP-1 cell lysate, anti-DNase X.

In assay [3] the target is T2, mouse DNase X on wild-type bone marrow-derived macrophages (BMDMs) (mouse, UniProt Q9D7J6 38-314).
T2 construct: whole, on cells
T2 sequence: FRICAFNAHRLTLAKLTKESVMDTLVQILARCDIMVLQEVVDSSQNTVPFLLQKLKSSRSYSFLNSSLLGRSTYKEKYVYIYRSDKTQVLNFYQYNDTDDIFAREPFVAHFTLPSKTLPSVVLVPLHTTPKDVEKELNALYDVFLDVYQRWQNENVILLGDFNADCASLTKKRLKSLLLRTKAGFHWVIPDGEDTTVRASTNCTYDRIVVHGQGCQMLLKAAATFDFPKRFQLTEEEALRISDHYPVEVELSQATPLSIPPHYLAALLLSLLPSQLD
In words: bead binding to BMDMs of wild-type and DNase X-/- mice, 30 min at 4 C.

Assay [4] deals with T3, human DNase X on the cell surface (HEK293 cells, human primary macrophages derived from peripheral blood … (human, UniProt P49184 19-302)).
T3 construct: whole, on cells; Endogenous protein on non-permeabilised cells; also called cell surface-exposed DNase X; surface DNase X
T3 sequence: T1 sequence (looked up)
Kind of assay: immunofluorescence of non-permeabilised HEK293 cells incubated with coated beads.

In assay [1], “native full-length EtpE (ECH1038, entry triggering protein of Ehrlichia) of E. chaffeensis Arkansas (ligand)” had a decrease in E. chaffeensis binding and entry into BMDMs at 4 h pi, DNase X-/- against wild type of 60%.

B1: rEtpE-C (recombinant C-terminal region of EtpE/ECH1038, residues 1656-1963, C-terminal histidine-tagged fusion protein) (ligand)
chain: ELLSLVGGHRNASSNNANNGRSLSQGIRYKITFKISFAQNYFPVDEIIKLQQDANNMEYGVHGVHRTDIIALWSYISYASSKSKWLFKRYQSFAGLLFEIGAWGKCTSAERVFFTSMNRYSEKLPLKVYNFIRKITTGDFARKFSGMQSLYTYKQRVYDYVMHCVLRGGLGGECSDMTLREISNELHKLKQEIYSNYDVFRDLGITNGQQEVLLLINVMMLNYAMSDLLVSTTQVNSMLADVRSSLSRTAHCLPYGTVSQLQRSVSHMKYGEYSNYRASVVALWACISCLASFNDDMEPLIKLMLEGD
notes: Used renatured on membrane or Ni matrix, or coated on 0.5 um latex beads; also called rEtpE-C-coated beads; not shown: C-terminal histidine tag from pET33b(+)
B1: the binding result in assay [2], in assay [3] and in assay [4] was “binds” throughout.
